Common to all, as to details: 20 mM Tris-HCl, 100 mM NaCl, 0.1% Triton X-100, pH 8, 37 °C
The test system of data set [1] is LysB-Obama12 (LysB-His6). Nature of the data set: p-nitrophenol release at […] nm, Michaelis-Menten. The data set is classed as biochemical, Mycobacterium phage Obama12.
Substrate in data set [2]: CCCC(=O)Oc1ccc([N+](=O)[O-])cc1
Description: purified protein. The data set is classed as biochemical, Mycobacterium phage Saal.

Substrate in data set [3]: CCCCCCCCCCCCCCCC(=O)Oc1ccc([N+](=O)[O-])cc1
Nature of the data set: purified protein. The data set is classed as biochemical, Mycobacterium phage Saal.

Substrate in data set [4]: CCCCCCCCCCCCCC(=O)Oc1ccc([N+](=O)[O-])cc1
Description: purified protein. Type of data set: biochemical, Mycobacterium phage Saal.

Substrate in data set [5]: CCCCCCCCCCCC(=O)Oc1ccc([N+](=O)[O-])cc1
Description: purified protein. The data set is classed as biochemical, Mycobacterium phage Saal.

Substrate in data set [6]: CCCCCCCC(=O)Oc1ccc([N+](=O)[O-])cc1
Description: purified protein. The data set is classed as biochemical, Mycobacterium phage Saal.

Substrate in data set [7]: CCCC(=O)Oc1ccc([N+](=O)[O-])cc1
Description: purified protein. Type of data set: biochemical, Mycobacterium phage Omega.

Substrate in data set [8]: CCCCCCCCCCCCCCCC(=O)Oc1ccc([N+](=O)[O-])cc1
Description: purified protein. The data set is classed as biochemical, Mycobacterium phage Omega.

Substrate in data set [9]: CCCCCCCCCCCCCC(=O)Oc1ccc([N+](=O)[O-])cc1
Nature of the data set: purified protein. Type of data set: biochemical, Mycobacterium phage Omega.

Substrate in data set [10]: CCCCCCCCCCCC(=O)Oc1ccc([N+](=O)[O-])cc1
Nature of the data set: purified protein. The data set is classed as biochemical, Mycobacterium phage Omega.

Substrate in data set [11]: CCCCCCCC(=O)Oc1ccc([N+](=O)[O-])cc1
Nature of the data set: purified protein. Type of data set: biochemical, Mycobacterium phage Omega.

Substrate in data set [12]: CCCC(=O)Oc1ccc([N+](=O)[O-])cc1
Description: purified protein. The data set is classed as biochemical, Fromanvirus D29.

Substrate in data set [13]: CCCCCCCCCCCCCCCC(=O)Oc1ccc([N+](=O)[O-])cc1
Description: purified protein. Type of data set: biochemical, Fromanvirus D29.

Substrate in data set [14]: CCCCCCCCCCCCCC(=O)Oc1ccc([N+](=O)[O-])cc1
Nature of the data set: purified protein. The data set is classed as biochemical, Fromanvirus D29.

Substrate in data set [15]: CCCCCCCCCCCC(=O)Oc1ccc([N+](=O)[O-])cc1
Description: purified protein. Type of data set: biochemical, Fromanvirus D29.

Substrate in data set [16]: CCCCCCCC(=O)Oc1ccc([N+](=O)[O-])cc1
Description: purified protein. Type of data set: biochemical, Fromanvirus D29.

Read-outs that look alike come from different tables or passages of the source.

Consider `CCCC(=O)Oc1ccc([N+](=O)[O-])cc1` [p-nitrophenyl butyrate], for which the Km in [1] (read-out: pNPB (C4)) was 1270 ± 60 µM.
Turning to `CCCCCCCCCCCCCC(=O)Oc1ccc([N+](=O)[O-])cc1` [p-nitrophenyl myristate], the Km in data set [1] (read-out: pNPM (C14)) turned out to be 1270 ± 86.4 µM.
In the case of `CCCCCCCCCCCCCCCC(=O)Oc1ccc([N+](=O)[O-])cc1` [p-nitrophenyl palmitate], in data set [1] (read-out: pNPP (C16)), the Km was determined as 800 ± 22.1 µM.
`CCCCCCCC(=O)Oc1ccc([N+](=O)[O-])cc1` [p-nitrophenyl octanoate]: the Km in data set [1] (read-out: pNPO (C8)) was found to be 2670 ± 46.5 µM.
For the molecule `CCCCCCCCCCCC(=O)Oc1ccc([N+](=O)[O-])cc1` [p-nitrophenyl laurate], the Km in [1] (read-out: pNPL (C12)) was determined as 3000 ± 20.1 µM.

B1: LysB-Saal (LysB-His6) (Mycobacterium phage Saal) (protein)
chain: MRIDGQYVGLGLGDSSDEIRKIKAFMRRKFASYAGDLADTPLYDEAMTAAVAEMQARYSAAGQLRAGLYIPGIVGAETKYVMGYLPRPVVDTRPVLITVCGTGVPWWIGPDADTARAVEDKYLWQPIGYPAAPFPMGKSIAAAITETHNQANRWRERIETHGAALAGYSQGAVVVSELWMNHIAPEDGSLHWMKPHIEKAVTWGNPNRELGHVWADHGGSPRAPSNTQGVSSNGMRDTPPWWRDYAHQGDLYACTEPGDTQEVRNAIWQIVRDLDLFTGPDSLLAQVVELVQAPLPEAIAITKALLDAGMFFAKRTGPHVDYNVQPAIDYLRT
Usually kcat/Km stands for the turnover number divided by the Michaelis constant. As for B1, the Km in data set [2] worked out at 4172.12 ± 20.104 µM; in data set [3], 2833.32 ± 40.824 µM; in [4] it was 956.7 ± 12.93 µM; in data set [5], 1476.39 ± 33.184 µM; in [6], 1519.25 ± 38.596 µM. The kcat/Km in [2] was 44700 ± 7630 M⁻¹ s⁻¹; in [3], 19700 ± 2420 M⁻¹ s⁻¹; in [4], 54000 ± 3520 M⁻¹ s⁻¹; in [5] it was 71800 ± 3350 M⁻¹ s⁻¹; in data set [6], 20300 ± 230 M⁻¹ s⁻¹.

B2: LysB-Omega (LysB-His6) (Mycobacterium phage Omega) (protein)
chain: MSLWPEIRAMLNGEFYVPAGTIITANGTGVPDGAGPGFGADLARELERVAEGMWIWKWINYPAAVMPMRPSINTLRLALKEMIRTTPGKIVLSAYSQSAVAFAYVWRDDILNPDGELHDRLDDIVAVILYGNPVRAPGIAYGNELGGQSAPGKLNGHVTGGIAGPDCLRPEECVHPVTGRRIVLDFANAGDLYAAAPVGAEPWVKETEVGHNETLIYEAVMDFNGRDILAFAKEIAQILTMPLSQVVPLVQAIINGLSFLVQGPKAPHWTYTIGPAVDYLVRTGNELRKN
In general, Vmax refers to the top rate of the reaction or transport when substrate is in excess. A word on the kcat: it is the number of substrate molecules converted per active site and unit of time at saturation. In the case of B2, the Km in data set [7] is given as 618.8 ± 24.98 µM; in data set [8] it was 24.4 ± 3.116 µM; in data set [9], 98.72 ± 5.292 µM; in data set [10], 280.8 ± 3.26 µM; in [11], 193.3 ± 2.258 µM. Also, the Vmax in data set [7] stood at 112 µmol/min/mg; in [8], 1.45 µmol/min/mg; in [9] it was 22.3 µmol/min/mg; in [10] it was 79.8 µmol/min/mg; in [11], 15.7 µmol/min/mg. Moreover, the kcat came out at 11.7 ± 0.313 s⁻¹ in data set [7]; 0.152 ± 0.0184 s⁻¹ in [8]; 2.35 ± 0.0785 s⁻¹ in data set [9]; 8.4 ± 0.339 s⁻¹ in [10]; 7.54 ± 0.165 s⁻¹ in data set [11]. Moreover, the kcat/Km turned out to be 19000 ± 733 M⁻¹ s⁻¹ in [7]; 6230 ± 4950 M⁻¹ s⁻¹ in data set [8]; 23800 ± 783 M⁻¹ s⁻¹ in data set [9]; 40200 ± 2260 M⁻¹ s⁻¹ in data set [10]; 39000 ± 6070 M⁻¹ s⁻¹ in [11].

B3: LysB-D29 (LysB-His6) (Fromanvirus D29) (protein)
chain: MSKPWLFTVHGTGQPDPLGPGLPADTARDVLDIYRWQPIGNYPAAAFPMWPSVEKGVAELILQIELKLDADPYADFAMAGYSQGAIVVGQVLKHHILPPTGRLHRFLHRLKKVIFWGNPMRQKGFAHSDEWIHPVAAPDTLGILEDRLENLEQYGFEVRDYAHDGDMYASIKEDDLHEYEVAIGRIVMKASGFIGGRDSVVAQLIELGQRPITEGIALAGAIIDALTFFARSRMGDKWPHLYNRYPAVEFLRQI
For B3, the Km in [12] turned out to be 422.6 ± 29.4 µM; in data set [13], 37.7 ± 7.134 µM; in [14], 24.08 ± 0.505 µM; in [15], 19.6 ± 3.094 µM; in data set [16], 42.3 ± 0.445 µM. Moreover, the Vmax in data set [12] amounted to 122 µmol/min/mg; in [13], 2.73 µmol/min/mg; in [14], 3 µmol/min/mg; in data set [15], 7.55 µmol/min/mg; in data set [16] it was 9.85 µmol/min/mg. The kcat amounted to 11.9 ± 0.187 s⁻¹ in [12]; 0.242 ± 0.0168 s⁻¹ in data set [13]; 0.294 ± 0.0159 s⁻¹ in [14]; 0.738 ± 0.026 s⁻¹ in data set [15]; 0.961 ± 0.213 s⁻¹ in [16]. In addition, the kcat/Km in data set [12] amounted to 28300 ± 6130 M⁻¹ s⁻¹; in [13], 6330 ± 783 M⁻¹ s⁻¹; in data set [14], 12200 ± 512 M⁻¹ s⁻¹; in data set [15], 37700 ± 6030 M⁻¹ s⁻¹; in [16] it was 22700 ± 723 M⁻¹ s⁻¹.

For the origin of these results see article PMC7246905, “Exploring the Enzymatic and Antibacterial Activities of Novel Mycobacteriophage Lysin B Enzymes” (International Journal of Molecular Sciences, 2020).
